Key:
[1] = molecular target: glucose dehydrogenase containing the sortase-motif LPXTG; assay: cell-based or functional assay
[2] = molecular target: glucose dehydrogenase harboring a LPKTA motive

Row | Binder | maximum dE/min [1] | activity with different LPKTA concentrations [2]
1 | Listeria monocytogenes Sortase A variant D (enzyme) ANYDKDAVVGSIAVPSVDVNLLVFKGTNTANLLAGATTMRSDQVMGKGNYPLAGHHMRDESMLFGPIMKVKKGDKIYLTDLENLYEYTVTETKTIDETEVSVIDDTKDARITLITCDKPTETTKRFVAVGELEKTEKMRGSHHHHHHGS | 0.044 dE/min | 
2 | Listeria monocytogenes Sortase A variant E (enzyme) GSIAVPSVDVNLLVFKGTNTANLLAGATTMRSDQVMGKGNYPLAGHHMRDESMLFGPIMKVKKGDKIYLTDLENLYEYTVTETKTIDETEVSVIDDTKDARITLITCDKPTETTKRFVAVGELEKTEKLTKELENKYFPSKMRGSHHHHHHGS | 0.019 dE/min | 
3 | Listeria monocytogenes Sortase A variant A (enzyme) EKDATFDFESVQLPSMTSVIKGAANYDKDAVVGSIAVPSVDVNLLVFKGTNTANLLAGATTMRSDQVMGKGNYPLAGHHMRDESMLFGPIMKVKKGDKIYLTDLENLYEYTVTETKTIDETEVSVIDDTKDARITLITCDKPTETTKRFVAVGELEKTEKLTKELENKYFPSKMRGSHHHHHHGS | 0.037 dE/min | 
4 | N-terminally truncated Streptococcus pyogenes sortase A (protein) MRGSHHHHHHGSVLQAQMAAQQLPVIGGIAIPELGINLPIFKGLGNTELIYGAGTMKEEQVMGGENNYSLASHHIFGITGSSQMLFSPLERAQNGMSIYLTDKEKIYEYIIKDVFTVAPERVDVIDDTAGLKEVTLVTCTDIEATERIIVKGELKTEYDFDKAPADVLKAFNHSYNQVST |  | a substrate inhibition effect for St.py. SrtA at concentrations higher than 300 µM
5 | Listeria monocytogenes Sortase A variant C (enzyme) ANYDKDAVVGSIAVPSVDVNLLVFKGTNTANLLAGATTMRSDQVMGKGNYPLAGHHMRDESMLFGPIMKVKKGDKIYLTDLENLYEYTVTETKTIDETEVSVIDDTKDARITLITCDKPTETTKRFVAVGELEKTEKLTKELENKYFPSKMRGSHHHHHHGS | 0.113 dE/min | The graphs show the higher activity of Listeria monocytogenes Sortase A variant C
6 | Listeria monocytogenes Sortase A variant B (enzyme) SVIKGAANYDKDAVVGSIAVPSVDVNLLVFKGTNTANLLAGATTMRSDQVMGKGNYPLAGHHMRDESMLFGPIMKVKKGDKIYLTDLENLYEYTVTETKTIDETEVSVIDDTKDARITLITCDKPTETTKRFVAVGELEKTEKLTKELENKYFPSKMRGSHHHHHHGS | 0.026 dE/min | 

Source: patent publication US20180216091A1
